The values that follow come from publication PMC4605325, “The STAT3 HIES mutation is a gain-of-function mutation that activates genes via AGG-element carrying promoters”.

For data set [1], the target named is T1, Myc-STAT3 wild type (purified) (UniProt P40763 1-770). Nature of the data set: EMSA; 2 ug protein, 1 nM probe; less efficient than SIE; Pull-down: 20 mM Hepes pH 7.9, 100 mM KCl, 5 mM MgCl2, 0.1 mM EDTA, 4 mM DTT, 12% glycerol, 60 min room temperature (Fig 6D: 30 min on ice); EMSA: LightShift chemiluminescent kit, buffer not stated. To be noted: protein: recombinant; tags: Myc; chain copies: 2; label: 5'-biotin.
T1 sequence (P40763 whole entry): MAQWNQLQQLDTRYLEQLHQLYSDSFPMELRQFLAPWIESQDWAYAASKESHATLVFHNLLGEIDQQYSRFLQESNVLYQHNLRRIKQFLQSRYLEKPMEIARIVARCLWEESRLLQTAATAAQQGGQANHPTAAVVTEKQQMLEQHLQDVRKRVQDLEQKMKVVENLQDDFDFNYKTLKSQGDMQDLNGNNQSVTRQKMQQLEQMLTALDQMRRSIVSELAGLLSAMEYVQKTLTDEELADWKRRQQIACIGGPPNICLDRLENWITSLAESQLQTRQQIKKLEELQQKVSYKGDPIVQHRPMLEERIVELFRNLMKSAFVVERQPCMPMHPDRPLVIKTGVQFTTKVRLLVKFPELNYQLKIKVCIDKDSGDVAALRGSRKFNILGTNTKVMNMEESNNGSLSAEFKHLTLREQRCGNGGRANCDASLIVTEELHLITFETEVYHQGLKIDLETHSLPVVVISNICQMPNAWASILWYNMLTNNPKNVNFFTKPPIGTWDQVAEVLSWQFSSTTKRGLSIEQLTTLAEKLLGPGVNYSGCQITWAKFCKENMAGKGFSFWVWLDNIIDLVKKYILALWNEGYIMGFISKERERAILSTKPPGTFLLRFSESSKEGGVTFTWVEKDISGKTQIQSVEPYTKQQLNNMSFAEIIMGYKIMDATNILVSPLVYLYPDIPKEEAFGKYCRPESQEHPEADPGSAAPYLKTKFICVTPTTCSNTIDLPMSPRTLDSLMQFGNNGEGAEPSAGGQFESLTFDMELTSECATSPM

In data set [2] the target is Myc-STAT3 V461/462/463A (purified) (UniProt P40763 1-770, V461A;V462A;V463A). Put plainly: pull-down; IL-6; enhanced vs WT; Pull-down: 20 mM Hepes pH 7.9, 100 mM KCl, 5 mM MgCl2, 0.1 mM EDTA, 4 mM DTT, 12% glycerol, 60 min room temperature (Fig 6D: 30 min on ice); EMSA: LightShift chemiluminescent kit, buffer not stated. To be noted: protein: recombinant; tags: Myc; chain copies: 2; label: 5'-biotin.
Myc-STAT3 V461/462/463A (purified), sequence (P40763 whole entry V461A/V462A/V463A): as the sequence (P40763 whole entry) above, with V461A, V462A, V463A counted along it

In data set [3] the target is Myc-STAT3 R382Q (purified) (UniProt P40763 1-770, R382Q). The description is as above. To be noted: protein: recombinant; tags: Myc; chain copies: 2; label: 5'-biotin.
Myc-STAT3 R382Q (purified), sequence (P40763 whole entry R382Q): as the sequence (P40763 whole entry) above, with R382Q counted along it
For data set [4], the target named is Myc-STAT3 1-355 (purified) (UniProt P40763 1-355). Nature of the data set: pull-down; IL-6; Pull-down: 20 mM Hepes pH 7.9, 100 mM KCl, 5 mM MgCl2, 0.1 mM EDTA, 4 mM DTT, 12% glycerol, 60 min room temperature (Fig 6D: 30 min on ice); EMSA: LightShift chemiluminescent kit, buffer not stated. Conditions: protein: recombinant; tags: Myc; label: 5'-biotin. In general terms: In EMSA bound probe runs differently from free probe, usually more slowly.
Myc-STAT3 1-355 (purified), sequence (P40763 1-355): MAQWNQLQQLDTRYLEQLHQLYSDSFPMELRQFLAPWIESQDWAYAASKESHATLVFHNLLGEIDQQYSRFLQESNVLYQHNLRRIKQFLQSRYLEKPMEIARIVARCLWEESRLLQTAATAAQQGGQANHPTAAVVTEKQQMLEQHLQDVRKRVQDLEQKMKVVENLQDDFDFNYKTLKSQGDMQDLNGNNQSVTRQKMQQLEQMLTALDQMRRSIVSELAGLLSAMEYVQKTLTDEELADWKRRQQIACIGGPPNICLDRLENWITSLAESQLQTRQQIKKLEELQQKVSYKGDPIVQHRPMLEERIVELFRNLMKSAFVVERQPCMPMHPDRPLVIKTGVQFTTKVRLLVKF

For data set [5], the target named is Myc-STAT3 C-terminal region (purified) (UniProt P40763 465-770). The data set is described as above. Conditions: protein: recombinant; tags: Myc; label: 5'-biotin.
Myc-STAT3 C-terminal region (purified), sequence (P40763 465-770): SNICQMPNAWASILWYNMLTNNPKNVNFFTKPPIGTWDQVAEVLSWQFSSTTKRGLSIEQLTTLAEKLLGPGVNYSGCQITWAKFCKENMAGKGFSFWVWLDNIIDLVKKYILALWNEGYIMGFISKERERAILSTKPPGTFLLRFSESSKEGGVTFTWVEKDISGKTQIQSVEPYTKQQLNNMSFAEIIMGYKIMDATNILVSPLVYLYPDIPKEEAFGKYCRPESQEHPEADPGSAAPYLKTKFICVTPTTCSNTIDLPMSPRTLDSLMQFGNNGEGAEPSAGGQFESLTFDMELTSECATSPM
The target of data set [6] is T1, Myc-STAT3 wild type (purified). Nature of the data set: competition; 200-fold unlabeled competitor; Pull-down: 20 mM Hepes pH 7.9, 100 mM KCl, 5 mM MgCl2, 0.1 mM EDTA, 4 mM DTT, 12% glycerol, 60 min room temperature (Fig 6D: 30 min on ice); EMSA: LightShift chemiluminescent kit, buffer not stated. To be noted: protein: recombinant; tags: Myc; chain copies: 2.

B1: AGG-element oligo (dsDNA)
DNA 1: TTTGGGAGGCCGAGGTGGG
DNA 2: CCCACCTCGGCCTCCCAAA
In the case of B1, the binding result in data set [1] is on record as “binds”; in data set [2], “binds”; in data set [3], “binds”; in data set [4], “binds”; in data set [5], “no binding”.

B2: AGG oligo, unlabeled (dsDNA)
DNA 1: TTTGGGAGGCCGAGGTGGG
DNA 2: CCCACCTCGGCCTCCCAAA
Turning to B2, in data set [6], the binding result was “binds”.
